# Data published in US12281340B2, “Method of producing N-acyl-amino group-containing compound” (AJINOMOTO CO., INC., priority 2018, dated 2025).
# Legend:
# Format in all cases: biochemical
# Set-up in all cases: key: +: Detected; −: Not detected
# [1] = Synthesis of N-acylamino acids from various fatty acids using purified acylamino acid synthetase, UPLC-MS detection
# Procedure: 0.1 mL of a reaction solution containing 50 mM Tris-HCl, 5 mM amino acid, 5 mM sodium fatty acid (3 mM of sodium palmitate or sodium stearate), 10 mM ATP, 10 mM MgCl2, 1 mM DTT, 200 μg/mL of the purified enzyme, pH 8.0 was shaken at 25° C. for 24 hours. When sodium palmitate or sodium stearate was used, methanol at a final concentration of 10% (v/v) was contained in the reaction solution. As the amino acid, L-Asp was used in AtGH3-6, OsGH3-8, AtGH3-5, AtGH3-12, L-Ile was used in AtJAR1, L-Ala was used in AtGH3-10, SsGH3, L-Glu was used in AtGH3-17, Gly was used in CfHP, L-Lys was used in PsIAAL, and L-Cys was used in PaHP. After completion of the reaction, 0.4 mL of the reaction stop solution (1% (v/v) phosphoric acid, 75% (v/v) methanol) was added, and the mixture was filtrated through the filter followed by being subjected to the UPLC-MS analysis to detect a signal of a molecular weight corresponding to the N-acylamino acid.
# The condition for the UPLC-MS analysis is as follows.
# (§1) Apparatus: ACQUITY UPLC (Waters)
# Column: ACQUITY UPLC BEH C18 1.7 μm 2.1×100 mm Column (Waters), mobile phase A: 0.1% formic acid; mobile phase B: acetonitrile
# • Flow rate: 0.6 mL/minute • Injection amount: 2 μL • Column temperature: 40° C. • Ionization method: ESI-negative
# As a result of the UPLC-MS analysis, the signal of the molecular weight corresponding to the appropriate N-acylamino acid was confirmed in the reaction solution containing the enzyme in combination with sodium fatty acid shown in Table 7 below.
# [2] = Synthesis of N-caprinoylamino acid using purified acylamino acid synthetase, UPLC-MS detection; conditions: +ATP
# Procedure: 2.0 mL of a reaction solution containing 50 mM Tris-HCl, 5 mM amino acid, 5 mM sodium caprate, 10 mM ATP, 10 mM MgCl2, 1 mM DTT, 50 μg of the purified enzyme, pH 8.0 was incubated at 25° C. for 24 hours. After completion of the reaction, 0.8 mL of a reaction stop solution (1% (v/v) phosphoric acid, 75% (v/v) methanol) was added, and the mixture was filtrated through a filter followed by being subjected to the UPLC-MS analysis to detect a signal of a molecular weight corresponding to an N-caprinoyl amino acid.
# A UPLC-MS analysis condition is as follows.
# as §1
# • Column: ACQUITY UPLC BEH C18 1.7 2.1×100 mm Column (Waters) • Mobile phase A: 0.1% formic acid • Mobile phase B: acetonitrile Gradient
# • Flow rate: 0.6 mL/min • Injection amount: 2 μL • Column temperature: 40° C. • Ionization method: ESI-negative
# As a result of the UPLC-MS analysis, the signal of the molecular weight corresponding to the N-caprinoyl amino acid was confirmed in the reaction solution combining the enzyme and the amino acid shown in Table 3 below.
# [3] = Synthesis of N-caprinoyl-amino acid derivative, N-caprinoyl-D-amino acid and N-caprinoyl-peptide using purified acylamino acid synthetase, UPLC-MS detection; conditions: +ATP
# Procedure: 0.2 mL of a reaction solution containing 50 mM Tris-HCl, 5 mM amino acid derivative or D-amino acid or peptide, 5 mM sodium caprate, 10 mM ATP, 10 mM MgCl2, 1 mM DTT, 50 μg/mL of the purified enzyme, pH 8.0 was incubated at 25° C. for 24 hours. After completion of the reaction, 0.8 mL of the reaction stop solution (1% (v/v) phosphoric acid, 75% (v/v) methanol) was added, and the mixture was filtrated through the filter followed by being subjected to the UPLC-MS analysis to detect a signal of a molecular weight corresponding to an N-caprinoyl-amino acid derivative, an N-caprinoyl-amino acid or an N-caprinoyl-peptide. A condition for the UPLC-MS analysis is as described in Example 2.
# As a result of the UPLC-MS analysis, the signal of the molecular weight corresponding to the N-caprinoyl-amino acid derivative, or N-caprinoyl-amino acid, or N-caprinoyl-peptide was confirmed in the reaction solution containing the enzyme in combination with the amino acid derivative or the D-amino acid or the peptide shown in Table 4 below.
molecule,measurement,setting,value
"AtJAR1: Jasmonic acid-amido synthetase JAR1 from Arabidopsis thaliana, His-tagged (protein, listed as Arabidopsis thaliana, His-tag, Jasmonic acid-amido synthetase JAR1 from Arabidopsis thaliana, His-tagged) MLEKVETFDMNRVIDEFDEMTRNAHQVQKQTLKEILLKNQSAIYLQNCGLNGNATDPEEAFKSMVPLVTDVELEPYIKRMVDGDTSPILTGHPVPAISLSSGTSQGRPKFIPFTDELMENTLQLFRTAFAFRNRDFPIDDNGKALQFIFSSKQYISTGGVPVGTATTNVYRNPNFKAGMKSITSPSCSPDEVIFSPDVHQALYCHLLSGILFRDQVQYVFAVFAHGLVHAFRTFEQVWEEIVTDIKDGVLSNRITVPSVRTAMSKLLTPNPELAETIRTKCMSLSNWYGLIPALFPNAKYVYGIMTGSMEPYVPKLRHYAGDLPLVSHDYGSSEGWIAANVTPRLSPEEATFAVIPNLGYFEFLPVSETGEGEEKPVGLTQVKIGEEYEVVITNYAGLYRYRLGDVVKVIGFYNNTPQLKFICRRNLILSINIDKNTERDLQLSVESAAKRLSEEKIEVIDFSSYIDVSTDPGHYAIFWEISGETNEDVLQDCCNCLDRAFIDAGYVSSRKCKTIGALELRVVAKGTFRKIQEHFLGLGSSAGQFKMPRCVKPSNAKVLQILCENVVSSYFSTAF",signal of molecular weight corresponding to N-acylamino acid,[1]; substrates L-Ile and Capric acid,+
same,signal of molecular weight corresponding to N-acylamino acid,[1]; substrates L-Ile and Caproic acid,+
same,signal of molecular weight corresponding to N-acylamino acid,[1]; substrates L-Ile and Caprylic acid,+
same,signal of molecular weight corresponding to N-acylamino acid,[1]; substrates L-Ile and Lauric acid,+
same,signal of molecular weight corresponding to N-acylamino acid,[1]; substrates L-Ile and Linoleic acid,−
same,signal of molecular weight corresponding to N-acylamino acid,[1]; substrates L-Ile and Palmitic acid,−
same,signal of molecular weight corresponding to N-acylamino acid,[1]; substrates L-Ile and myristic acid,−
same,signal of molecular weight corresponding to N-caprinoyl amino acid,[2]; substrates GABA and sodium caprate,+
same,signal of molecular weight corresponding to N-caprinoyl amino acid,[2]; substrates Gly and sodium caprate,+
same,signal of molecular weight corresponding to N-caprinoyl amino acid,[2]; substrates L-Ala and sodium caprate,+
same,signal of molecular weight corresponding to N-caprinoyl amino acid,[2]; substrates L-Arg and sodium caprate,+
same,signal of molecular weight corresponding to N-caprinoyl amino acid,[2]; substrates L-Asn and sodium caprate,+
same,signal of molecular weight corresponding to N-caprinoyl amino acid,[2]; substrates L-Asp and sodium caprate,+
same,signal of molecular weight corresponding to N-caprinoyl amino acid,[2]; substrates L-Cys and sodium caprate,−
same,signal of molecular weight corresponding to N-caprinoyl amino acid,[2]; substrates L-Gln and sodium caprate,+
same,signal of molecular weight corresponding to N-caprinoyl amino acid,[2]; substrates L-Glu and sodium caprate,+
same,signal of molecular weight corresponding to N-caprinoyl amino acid,[2]; substrates L-His and sodium caprate,+
same,signal of molecular weight corresponding to N-caprinoyl amino acid,[2]; substrates L-Ile and sodium caprate,+
same,signal of molecular weight corresponding to N-caprinoyl amino acid,[2]; substrates L-Leu and sodium caprate,+
same,signal of molecular weight corresponding to N-caprinoyl amino acid,[2]; substrates L-Lys and sodium caprate,−
same,signal of molecular weight corresponding to N-caprinoyl amino acid,[2]; substrates L-Met and sodium caprate,+
same,signal of molecular weight corresponding to N-caprinoyl amino acid,[2]; substrates L-Phe and sodium caprate,+
same,signal of molecular weight corresponding to N-caprinoyl amino acid,[2]; substrates L-Pro and sodium caprate,+
same,signal of molecular weight corresponding to N-caprinoyl amino acid,[2]; substrates L-Ser and sodium caprate,+
same,signal of molecular weight corresponding to N-caprinoyl amino acid,[2]; substrates L-Thr and sodium caprate,+
same,signal of molecular weight corresponding to N-caprinoyl amino acid,[2]; substrates L-Trp and sodium caprate,+
same,signal of molecular weight corresponding to N-caprinoyl amino acid,[2]; substrates L-Tyr and sodium caprate,+
same,signal of molecular weight corresponding to N-caprinoyl amino acid,[2]; substrates L-Val and sodium caprate,+
same,signal of molecular weight corresponding to N-caprinoyl amino acid,[2]; substrates β-Ala and sodium caprate,+
same,signal of molecular weight corresponding to N-caprinoyl compound,[3]; substrates Carnosine and sodium caprate,−
same,signal of molecular weight corresponding to N-caprinoyl compound,[3]; substrates D-Ala and sodium caprate,+
same,signal of molecular weight corresponding to N-caprinoyl compound,[3]; substrates D-Asp and sodium caprate,+
same,signal of molecular weight corresponding to N-caprinoyl compound,[3]; substrates D-Cys and sodium caprate,−
same,signal of molecular weight corresponding to N-caprinoyl compound,[3]; substrates D-Glu and sodium caprate,+
same,signal of molecular weight corresponding to N-caprinoyl compound,[3]; substrates D-Ile and sodium caprate,+
same,signal of molecular weight corresponding to N-caprinoyl compound,[3]; substrates D-Lys and sodium caprate,−
same,signal of molecular weight corresponding to N-caprinoyl compound,[3]; substrates L-Asp-L-Phe and sodium caprate,−
same,signal of molecular weight corresponding to N-caprinoyl compound,[3]; substrates L-Gly-L-Gly and sodium caprate,+
same,signal of molecular weight corresponding to N-caprinoyl compound,[3]; substrates Sarcosine and sodium caprate,+
same,signal of molecular weight corresponding to N-caprinoyl compound,[3]; substrates Taurine and sodium caprate,+
